In patent publication US20090075925A1, “Methods and Compositions Related to APOBEC-1 Expression” (priority 2006, published 2009):

B1: ACF64: 64 kDa ACF variant, SEQ ID NO:1 (protein)
chain: MESNHKSGDGLSGTQKEAALRALVQRTGYSLVQENGQRKYGGPPPGWDAAPPERGCEIFIGKLPRDLFEDELIPLCEKIGKIYEMRMMMDFNGNNRGYAFVTFSNKVEAKNAIKQLNNYEIRNGRLLGVCASVDNCRLFVGGIPKTKKREEILSEMKKVTNEGVVDVIVYPSAADKTKNRGFAFVEYESHRTAAMARRKLLPGRIQLWGHGIAVDWAEPEVEVDEDTMSSVKILYVRNLMLSTSEEMIEKEFNNIKPGAVERVKKIRDYAFVHFSNRKDAVEAMKALNGKVLDGSPIEVTLAKPVDKDSYVRYTRGTGGRGTMLQGEYTYSLGQVYDPTTTYLGAPVFYAPQTYAAIPSLHFPATKGHLSNRAIIRAPSVRGAAGVRGLGGRGYLAYTGLGRGYQVKGDKREDKLYDILPGMELTPMNPVTLKPQGIKLAPQILEEICQKNNWGQPVYQLHSAIGQDQRQLFLYKITIPALASQNPAIHPFTPPKLSAFVDEAKTYAAENYTLQTLGIPTDGGDGTMATAAAAATAFPGYAVPNATAPVSAAQLKQAVTLGQDLAAYTNTYEVYPTFAVTARGDGYGTF
B2: S154D: ACF64 with serine 154 to aspartic acid substitution (protein)
chain: MESNHKSGDGLSGTQKEAALRALVQRTGYSLVQENGQRKYGGPPPGWDTTPPERGCEIFIGKLPRDLFEDELIPLCEKIGKIYEMRMMMDFNGNNRGYAFVTFSNKQEAKNAIKQLNNYEIRNGRLLGVCASVDNCRLFVGGIPKTKKREEILDEMKKVTEGVVDVIVYPSAADKTKNRGFAFVEYESHRAAAMARRRLLPGRIQLWGHPIAVDWAEPEVEVDEDTMSSVKILYVRNLMLSTSEEMIEKEFNSIKPGAVERVKKIRDYAFVHFSNREDAVEAMKALNGKVLDGSPIEVTLAKPVDKDSYVRYTRGTGGRNTMLQEYTYPLSHVYDPTTTYLGAPVFYTPQAYAAIPSLHFPATKGHLSNRALIRTPSVRGAAGVRGLGGRGYLAYTGLGRGYQVKGDKRQDKLYDLLPGMELTPMNTISLKPQGVKLAPQILEEICQKNNWGQPVYQLHSAIGQDQRQLFLYKVTIPALASQNPAIHPFTPPKLSAYVDEAKRYAAEHTLQTLGIPTEGGDAGTTAPTATSATVFPGYAVPSATAPVSTAQLKQAVTLGQDLAAYTTYEVYPTFAVTTRGDGYGTF
B3: ACF43: 43 kDa ACF variant, SEQ ID NO:19 (protein)
chain: MESNHKSGDGLSGTQKEAALRALVQRTGYSLVQENGQRKYGGPPPGWDAAPPERGCEIFIGKLPRDLFEDELIPLCEKIGKIYEMRMMMDFNGNNRGYAFVTFSNKVEAKNAIKQLNNYEIRNGRLLGVCASVDNCRLFVGGIPKTKKREEILSEMKKVTEGVVDVIVYPSAADKTKNRGFAFVEYESHRAAAMARRKLLPGRIQLWGHGIAVDWAEPEVEVDEDTMSSVKILYVRNLMLSTSEEMIEKEFNNIKPGAVERVKKIRDYAFVHFSNRKDAVEAMKALNGKVLDGSPIEVTLAKPVDKDSYVRYTRGTGGRGTMLQGEYTYSLGQVYDPTTTYLGAPVFYAPQTYAAIPSLHFPATKGHLSNRAIIRAPSVRGAAGVRGLGGRGYLAYTGLGRGYQVKGDKREDKLYDILPGMELTPMNPVTLKPQGIKLAPQILEEICQKNNWGQPVYQLHSAIGQDQRQLFLYKITIPALASQNPAIHPFTPPKLSAFVDEAKTYAAEYTLQTLGIPTDGGDGTMATAAAAATAFPGYAVPNATAPVSAAQLKQAVTLGQDLAAYTTYEVYPTFAVTARGDGYGTF
B4: ACF45: 45 kDa ACF variant, SEQ ID NO:18 (protein)
chain: B3 chain

Tests used:
apoB mRNA editing [1] = test: apoB mRNA editing in McArdle cells (ethanol, ACF wild type, mutants and isoforms); type: cell-based, rat; conditions: for effect of isoform expression on editing: HA-tagged, transfected McArdle cells
Procedure: McArdle RH7777 cells (ATCC Manassas, Va.) stably expressing HA epitope-tagged APOBEC-1 (Yang et al. J Biol Chem 272:27700-6 (1997)) were treated for 4 hours with 0.9% ethanol and fractionated into nuclear extracts (Van Mater et al. (1998)).
To calibrate the system cells were incubated in the presence of ethanol for 4 hours and the amount of edited apoB mRNA determined.
The overall expression and subcellular localization of epitope tagged ACF isoforms is established by western blotting of nuclear and cytoplasmic extracts (prepared using NE-PER system; Pierce). These biochemical studies are complemented by immunofluorescence microscopy of paraformaldehyde fixed cells reacted with epitope tag or ACF isoform-specific antibodies. In pilot experiments varying levels of HA-tagged ACF43 and ACF45 were expressed by transfecting differing amounts of cDNA into McArdle or McAPOBEC cells (FIGS. 35A & C, western blots). […] The above transient transfection scenarios can be recapitulated in ethanol treated cells to evaluate the affect of ACF isoform abundance on cells ability to respond to metabolic perturbation. […] ACF expression levels, subcellular localization and editing activity are determined from replicate experiments and the relative affects of overexpressing each isoform compared in the absence (negative control) or presence of ethanol and to the response seen in wild type cells (positive control).

apoB mRNA editing [2] = test: apoB mRNA editing in McAPOBEC cells transfected with ACF isoforms; type: cell-based, rat; conditions: HA-tagged
Text: The overall expression and subcellular localization of epitope tagged ACF isoforms is established by western blotting of nuclear and cytoplasmic extracts (prepared using NE-PER system; Pierce). These biochemical studies are complemented by immunofluorescence microscopy of paraformaldehyde fixed cells reacted with epitope tag or ACF isoform-specific antibodies. In pilot experiments varying levels of HA-tagged ACF43 and ACF45 were expressed by transfecting differing amounts of cDNA into McArdle or McAPOBEC cells (FIGS. 35A & C, western blots). The level of exogenously expressed HA-tagged APOBEC-1 in McAPOBEC cells was high and unaffected by ACF isoform expression (FIG. 35C). Sufficient endogenous ACF was expressed in McAPOBEC cells to support 61% editing (FIG. 35D, poisoned primer extension) given the level of APOBEC-1 overexpression (FIG. 35C). […] ACF43's facilitation of ACF64/65 binding to apoB mRNA enhanced editing activity only when APOBEC-1 abundance was not rate limiting (analogous to FIG. 34, insulin). […] ACF expression levels, subcellular localization and editing activity are determined from replicate experiments and the relative affects of overexpressing each isoform compared in the absence (negative control) or presence of ethanol and to the response seen in wild type cells (positive control).

Molecule	stimulation of editing by stable ectopic expression compared to untransfected McArdle cells (apoB mRNA editing [1]; stable cell line) [%]	further stimulation of editing on addition of ethanol (apoB mRNA editing [1]; stable cell line, ethanol) [fold]	enhancement of editing (apoB mRNA editing [1]; stable McArdle cell line) [%]	effect of isoform expression on editing (apoB mRNA editing [1])	effect of isoform expression on editing (61% editing without) (apoB mRNA editing [2])
B1	19	3	–	–	–
B2	–	–	67	–	–
B3	–	–	–	did not affect editing	stimulated editing activity
B4	–	–	–	inhibited editing over two-fold	had no affect
